In publication PMC10323247:

Key:
[1] = biological target: GMPCPP- and Taxol-stabilised TAMRA-labelled microtubules of porcine brain tubulin (porcine) (UniProt P02550); experiment: TIRF microscopy binding assay; 1 nM GFP-augmin on surface-attached TAMRA-microtubules with importin α, importin β (25-400 nM) or importin α/β (25-100 nM each), with or without 3.5 μM RanQ69L; BRB80 binding buffer; 30°C
[2] = biological target: recombinant human augmin complex (GFP-augmin), all eight full-length subunits HAUS1-HAUS8 (human) (UniProt Q96CS2); experiment: single-molecule TIRF fluorescence intensity analysis; GFP-augmin particles diffusing on microtubules; particle intensity divided by the intensity of single mGFP-augmin particles (photobleaching experiment); conditions: remark: other sources report otherwise

| median background-corrected fluorescence intensity on microtubules with 100 nM importin α/β and 3.5 µM RanQ69L [1] | median background-corrected fluorescence intensity on microtubules with 400 nM importin β and 3.5 µM RanQ69L [1] | median background-corrected fluorescence intensity on microtubules, control without importin [1] | stoichiometry N [2] | Substance |
| --- | --- | --- | --- | --- |
| 338 | 273 | 321 |  | recombinant human augmin complex (GFP-augmin), all eight full-length subunits HAUS1-HAUS8 (from UniProt Q96CS2-1 1-278; Q9NVX0-1 1-235; Q68CZ6-1 1-603; Q9H6D7-1 1-363; O94927-1 1-633; Q7Z4H7-1 1-955; Q99871-1 1-358; Q9BT25-1 1-410) |
|  |  |  | < 10 | recombinant human augmin complex (GFP-augmin), all eight full-length subunits HAUS1-HAUS8, Q96CS2-1 1-278; Q9NVX0-1 1-235; Q68CZ6-1 1-603; Q9H6D7-1 1-363; O94927-1 1-633; Q7Z4H7-1 1-955; Q99871-1 1-358; Q9BT25-1 1-410 |
